Measured values from PMC2779157.

What was measured:
[1] = biological target: IRF3, activated in vitro by virus-activated mitochondria (P5) and cytosolic extract (UniProt Q14653); assay: SEC
[2] = biological target: IRF3 (UniProt Q14653); assay: Superdex-200 gel filtration after cell-free reaction; conditions: reference: reaction without virus-activated mitochondria; sites S385,S386,S396

IRF3, sequence (Q14653 whole entry, change not shown): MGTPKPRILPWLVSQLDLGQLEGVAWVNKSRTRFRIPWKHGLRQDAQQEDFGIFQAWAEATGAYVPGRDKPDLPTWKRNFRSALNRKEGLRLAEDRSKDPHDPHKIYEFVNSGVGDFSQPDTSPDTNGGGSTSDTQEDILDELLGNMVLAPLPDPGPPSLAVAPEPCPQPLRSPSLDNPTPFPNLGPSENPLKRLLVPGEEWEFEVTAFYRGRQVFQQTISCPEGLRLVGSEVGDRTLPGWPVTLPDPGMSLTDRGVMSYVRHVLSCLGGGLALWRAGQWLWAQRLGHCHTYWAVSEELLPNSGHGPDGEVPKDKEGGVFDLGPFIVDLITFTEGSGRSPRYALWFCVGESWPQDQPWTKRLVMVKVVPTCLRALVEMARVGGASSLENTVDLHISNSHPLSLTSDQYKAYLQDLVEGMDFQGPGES

Substance	stoichiometry N [1]	other: apparent molecular mass [2]
IRF3, activated in vitro by virus-activated mitochondria (P5) and cytosolic extract (from UniProt Q14653 1-427) (natural protein)	2	
IRF3 (from UniProt Q14653) reaction with virus-activated mitochondria (P5)		gained; reference 150
